# B1: QDX46968.1: Type-III PKS enzyme (OLS) from Anoectochilus roxburghii, designated OLS_Aro (protein, listed as Anoectochilus roxburghii)
# chain: MPSLESIRKAPRADGLASILAIGRANPDNFMEQSSFPDFFFRITGSDHLVDLKKKFQRICDRTAIRKRHFVWNEEFIKANPCFSTFMDNSLNVRQEVAIREIPKLGAEAATKAIKEWGQPKSRITHLIFCTTSGMDLPGADYQLTRILGLNPNVERVMLYQQGCFAGGTTLRLAKCLAESRKGARVLVVCAETTTVLFRAPSEEHQEDLVTQALFADGASAVIVGADPDEEAHEKASFVIFSTSQVLLPDSEGAIGGHVSEGGLLATLHRDVPQLVSKNVGKCLEEAFTPLGISDWNSIFWVPHPGGRAILDQIEERVGLKPEKLTTSRHVLAEYGNMSSVCVHFVLDEMRKKSSKEGKATTGEGLEWGVLFGFGPGLTVETVVLRSVPL
# modifications: (1)..(390) QDX46968.1
# Experiments:
# [1] = test system: E. coli derivative strain which overexpressed an acyl-CoA synthetase (fadD) gene and expressed an olivetolic acid cyclase (OAC) from Cannabis sativa; assay: OL, OLA and PDAL production in E. coli from genome-integrated Type-III PKS genes; assay type: cell-based
# Description: To test olivetolic acid production in E. coli, strains comprising a putative OLS gene and an OAC gene from C. sativa were inoculated in multi-well plates containing LB supplemented with 1% glucose and appropriate concentrations of antibiotics. After 6 hours of cultivation at 32° C., the cells were transferred with a 10% inoculum to a P-limited seed medium (see Table 2) and cultivated for ˜18 hours at 32° ° C. to reach an OD of 2.0-4.0. The cultures were transferred with a 20% inoculum in a P-minimal medium (see Table 3) supplemented with 2% glucose and appropriate concentrations of antibiotics. After 3 hours of cultivation at 32° C., the culture was spiked with 4 mM hexanoic acid (˜OD 1.5-2.0). The resulting cultures were then harvested at either 3 hours or 21 hours post hexanoic acid spike; a final OD was taken. 300 μL of butyl acetate containing 500 mg/L undecanoic acid was added to each multi-well plate. The plates were then vortexed for 30 minutes at 1500 rpm and centrifuged for 10 minutes at 4500 rpm. 50 μL of organic layer was transferred to a 96-well plate and derivatized with 50 μL of N,O-Bis(trimethylsilyl)trifluoroacetamide (BSTFA). The plate was then incubated at room temperature for 2 hours to allow for complete derivatization. The samples were then run on GC-FID for analytical quantification of olivetolic acid (OLA), olivetol (OL), PDAL, and hexanoic acid.
# Olivetol, PDAL, OLA, HTAL, CBGA and combinations thereof were analyzed by LCMS or LCMS/MS methods using C18 reversed phase chromatography coupled to either EXACTIVE™ (ThermoFisher) or QTRAP® 4500 (Sciex) mass spectrometers.
# For reversed phase LCMS, compounds were identified by their LC retention times and MRM transitions specific to the compounds. LCMS/MS analysis was conducted on a Shimadzu UHPLC system coupled with AB Sciex QTRAP 4500 mass spectrometer. Agilent Eclipse XDB C18 column (4.6×3.0 mm, 1.8 μm) was used with a 1-min gradient elution at 1 mL/min using water containing 0.1% ammonia acetate as mobile phase A and 90% methanol containing 0.1% ammonia acetate as mobile phase B. The LC column temperature was maintained at 45° C. Negative ionization mode was used for all the analytes.
# Three of the type-III PKS genes from Example 1 were integrated under control of a constitutive promoter into an E. coli derivative strain which overexpressed an acyl-CoA synthetase (fadD) gene and expressed an olivetolic acid cyclase (OAC) from Cannabis sativa.
# The in vivo assay procedure and analytical methods were performed as described above.
# [2] = test system: hexanoyl-CoA and malonyl-CoA; assay: Specific activity assay of purified type-III polyketide synthases (OLA formation in presence of OAC); assay type: biochemical; conditions: hexanoyl-CoA and malonyl-CoA in the presence of OAC; FIG. 3
# Description: In this Example, the specific activities of three previously uncharacterized type-III polyketide synthases (PKS) to form olivetolic acid from hexanoyl-CoA and malonyl-CoA in the presence of olivetolic acid cyclase (OAC) were determined and compared to the olivetol synthase (OLS) from C. sativa.
# Assays were performed in a total volume of 50 μL in 100 mM Tris, pH 7.5 buffer containing 100 μM malonyl-CoA; 100 µM hexanoyl-CoA; a malonyl-CoA regenerating system comprising malonyl-CoA synthetase, excess malonate, and ATP; and excess purified olivetolic acid cyclase (OAC). The major product in this assay was olivetolic acid (OLA), and the triketide pentyl diacetic acid lactone (PDAL) was a side product. N-His-tagged purified enzymes were assayed under these assay conditions at enzyme concentrations and reaction times suitable for initial rate measurements of product formation. Reactions were initiated by addition of the PKS, then incubated for 30 min. Subsequently, 10 μL of reaction solution was removed and quenched into 15 volumes of 75% acetonitrile containing 0.1% formic acid and internal standards, then centrifuged to pellet denatured protein. Supernatants were transferred to fresh plates for LC-MS analysis of OLA, olivetol (OL), and PDAL as described in the Method section above.
# [3] = test system: E. coli derivative strain which overexpressed an acyl-CoA synthetase (fadD) gene and expressed an olivetolic acid cyclase (OAC) from Cannabis sativa; assay: OL, OLA and PDAL production in E. coli from plasmid-expressed Type-III PKS genes; assay type: cell-based; conditions: gene on plasmid
# Outline: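 E. coli strains expressing codon-optimized Type-III PKS genes (constitutive promoter) plus fadD overexpression and C. sativa OAC, grown at 32° C in P-minimal medium with 2% glucose, spiked with 4 mM hexanoic acid; harvested 3 h or 21 h post-spike. Butyl acetate extracts BSTFA-derivatized, OLA/OL/PDAL quantified by GC-FID.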
# [4] = test system: hexanoyl-CoA or butyryl-CoA; assay: High-throughput activity assay of OLS_Aro and its variants in cell lysate; assay type: biochemical; conditions: in the absence of Olivetolic acid Cyclase (OAC)
# From the text: Single amino acid positions of interest of OLS_Aro were identified based on a 7 Å radial proximity around the active site predicted based on docking results with the tetraketide product into a structural homology model of OLS_Aro. Variants were constructed as a plasmid-based library using specific primers at the positions undergoing mutagenesis, amplifying fragments via Polymerase Chain Reaction (PCR), and circularizing plasmids via Gibson ligation. For site-saturation mutagenesis of selected amino acids sites, a compressed-codon approach was used to eliminate codon redundancy to lower library size. The plasmid-base used was the pZS*vector (Novagen) with expression of the OLS_Aro under control of a pAl promoter and lactose (lac) operator. […]
# Single colonies were picked for growth in Luria Bertani (LB) medium in 384-well plates containing with carbenicillin (Carb). […] Cells pellets were stored at −20° C. until ready for assay. […]
# Reactions were initiated by addition of cell lysate, then incubated for 20 mins or 1 hr for hexanoyl-CoA and butyryl-CoA, respectively. […] Filtrates analyzed by LC/MS for the quantification of olivetolic acid (OLA), olivetol (OL), and pentyl diacetic acid lactone (PDAL); or divarinic acid (DVA), divarinol (DVL), and propyl diacetic acid lactone (Propyl-DAL). […]
# Under the screening conditions described above, products are detected in the low or sub μM range. […]
# [5] = constitutive promoter, 4 mM hexanoic acid
# [6] = constitutive promoter, culture spiked with 4 mM hexanoic acid
molecule,measurement,setting,value
B1,products produced by strains with chromosomally expressed enzyme,[1],"produced olivetol (OL), olivetolic acid (OLA) and pentyl diacetic acid lactone (PDAL)"
same,Total,[1]; OL + OLA + PDAL,276 µM
same,OL,[1]; [5],98 µM
same,OLA,[1]; [5],136 µM
same,PDAL,[1]; [5],42 µM
same,specific activity to form olivetolic acid compared with OLS from C. sativa,[2],higher specific activities
same,Total,[3]; OL + OLA + PDAL,1956 µM
same,levels of OLA relative to the E. coli strain with OLS from C. sativa,[3],over two-fold
same,OL,[3]; [6],597 µM
same,OLA,[3]; [6],823 µM
same,PDAL,[3]; [6],536 µM
same,reaction products,[4],the major products are OL and PDAL or DVL and Propyl-DAL

# — patent US20240240160A1, “NOVEL OLIVETOL SYNTHASES FOR C[…]” (priority 2021, published 2024)
